In paper PMC2824606:
pKd: −log10 of the molar value.

Target: yHsp90-Y24F, bacterially expressed and purified (N-terminally His6-tagged, pRSETA) (Saccharomyces cerevisiae) (UniProt P02829)
Assay: ITC

pKd: 5.74
Substance: Aha1 used for the in vitro binding constants (from UniProt Q12449 1-350) (natural protein)
